Test results as given in the supplement of paper PMC12855868.

B1: library; numbered along this chain (parent)
chain: MAAAGGARLLRAASAVLGGPAGRWLHHAGSRAGSSGLLRNRGPGGSAEASRSLSVSARARSSSEDKITVHFINRDGETLTTKGKVGDSLLDVVVENNLDIDGFGACEGTLACSTCHLIFEDHIYEKLDAITDEENDMLDLAYGLTDRSRLGCQICLTKSMDNMTVRVPETVADARQSIDVGKTS

Variants of: B1
Assay: scaled log2 fold change in cell abundance, elesclomol vs control (0 = silent mean, 1 = nonsense mean) (scaled log2 ratio); higher = higher viability under elesclomol (loss of FDX1 cuproptosis function)
Details: glucose 10 mM
[1] = with ABC1 FDX1 KO, elesclomol 5 nM, 14 days
[2] = with HEK293T FDX1 KO, elesclomol 40 nM, 11 days
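Also: variant abundance is its share of total variant reads in each endpoint sample, from next-generation sequencing of the integrated ORF PCR-amplified out of genomic DNA.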

Variant | scaled log2 fold change [1] | scaled log2 fold change [2]
L140H | -1.29 | 0.795
L140E | 0.271 | 
L140K | -0.153 | -0.169
L140G | -0.344 | 0.395
L140R | -0.341 | -0.397
L140W | -0.629 | 0.639
L140V | -0.00688 | 0.753
L140M | 0.393 | 0.793
L140I | -0.0613 | 0.225
L140N | 0.179 | 
L140P | 0.264 | 0.879
L140Y | -0.351 | -0.373
L140Q | 0.178 | -1.41
L140S | -0.172 | 
L140F | -0.344 | 0.78
L140T | -0.682 | -0.194
Y142M | -0.877 | -0.0122
Y142H | -0.0863 | 0.947
Y142D | -0.228 | 1.12
Y142G | -0.302 | -0.393
Y142Q | -0.102 | -0.021
Y142S | -0.293 | -1.45
Y142L | -0.24 | -0.251
Y142I | -0.441 | 

Variant | scaled log2 fold change [1] | scaled log2 fold change [2]
Y142C | 0.285 | -0.427
Y142P | -1.37 | 
Y142E | -0.1 | -0.695
Y142K | 0.0326 | 
Y142W | -0.245 | 0.733
Y142F | 0.0438 | 0.876
Y142A | -0.39 | 
Y142T | -0.197 | 0.583
Y142V | -0.226 | -0.606
Y142N | -0.329 | 
Y142R | 0.172 | -1.11
D146F | -0.0311 | 0.866
D146M | -0.332 | 
D146R | -0.0353 | 
D146C | 0.0801 | 0.758
D146L | 0.0782 | -0.302
D146I | -0.109 | 0.0633
D146G | -0.311 | 0.974
D146A | 0.0826 | -0.539
D146W | 0.114 | 0.978
D146H | -0.228 | -0.639
D146N | -0.093 | 0.538
D146P | -0.219 | 0.177
D146T | 0.301 | -0.841

Variant | scaled log2 fold change [1] | scaled log2 fold change [2]
D146Q | -0.0405 | -0.462
D146Y | 0.1 | 0.0545
D146V | -0.227 | -0.76
D146K | 0.0568 | -0.151
D146S | -0.00471 | 0.0302
D146E | 0.138 | 0.321
S148M | 0.0932 | 0.216
S148E | 0.489 | 1.23
S148Y | 0.363 | -0.279
S148Q | 0.313 | 0.39
S148I | 0.277 | 1.81
S148D | 0.488 | 0.491
S148F | 0.404 | 0.537
S148N | 0.122 | 0.397
S148K | 0.496 | -0.0219
S148C | 0.0537 | 0.319
S148H | 0.322 | -0.35
S148G | -0.0749 | -0.519
S148P | 0.532 | 0.268
S148L | 0.386 | 0.434
S148T | 0.485 | 0.124
S148R | 0.331 | 0.333
S148V | 0.0179 | 0.35
S148A | -0.395 | 0.0871

Variant | scaled log2 fold change [1] | scaled log2 fold change [2]
S148W | 0.632 | 0.172
L144A | 0.157 | -0.304
L144C | 0.106 | -0.265
L144H | -0.0895 | -0.335
L144Y | -1.21 | -0.239
L144R | 0.343 | 0.505
L144Q | 0.137 | -1.45
L144M | 0.249 | -0.887
L144N | 0.342 | -0.655
L144F | -0.293 | 1.23
L144G | -0.079 | -0.323
L144D | 0.171 | -0.877
L144K | 0.175 | -0.503
L144W | -0.112 | -0.217
L144I | 0.399 | -0.124
L144S | -0.409 | 0.564
L144E | 0.116 | 0.0837
L144P | 0.386 | 0.307
L144T | 0.135 | -0.511
L144V | -0.402 | -0.057
G143R | 0.384 | -1.11
G143M | 0.337 | -0.813
G143P | 0.108 | -0.153
G143F | -0.335 | 0.343

Variant | scaled log2 fold change [1] | scaled log2 fold change [2]
G143A | 0.189 | 1
G143Y | 0.0128 | 0.695
G143I | -0.102 | -0.507
G143C | -0.043 | 0.0676
G143K | -1.13 | 0.329
G143N | -0.705 | 0.0112
G143E | -0.312 | -0.391
G143T | 0.153 | -1.08
G143H | -0.162 | -0.302
G143S | -0.338 | 0.106
G143V | 0.0102 | -0.395
G143W | -0.202 | -0.602
G143L | -0.0816 | 0.114
G143D | 0.242 | 0.59
G143Q | -0.167 | 0.225
C152M | 1.16 | 0.861
C152H | 1.12 | 0.972
C152K | 1.05 | 0.942
C152D | 1.1 | 1.19
C152E | 1.03 | 1.1
C152G | 1.06 | 1.28
C152L | 1.14 | 1.41
C152F | 1.1 | 2.08
